Variants at the floor of the assay were thinned out.
B1: TPR 5TU (parent)
chain: GGAUCUUCUCGAUCUAACAAAAAAGACAAAUCUGCCACAAAGCUUGAGAGCAUCUUCGGAUGCAGAGGCGGCAGCCUUCGGUGGCGCGAUAGCGCCAACGUUCUCAACUAUGACACGCAAAACGCGUGCUCCGUUGAAUGGAGUUUAUCAUG

Variants of: B1
Experiment: polymerase ribozyme fitness, log enrichment relative to wild type (log ratio); higher = more active; in vitro selection for triplet polymerase activity
How it was run: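 Mutant libraries for each subunit of a heterodimeric triplet polymerase ribozyme were made by PCR and then transcribed. Each library underwent one round of in vitro selection in triplicate: annealing with a biotinylated primer, the partner subunit and triplets, frozen incubation at −7 °C, gel excision of extended constructs, streptavidin-bead capture and RT-PCR. Input and output libraries were Illumina-sequenced, and only genotypes with ≥10 input reads and ≥1 read per output were kept. Fitness is the logarithm, base 2, of genotype enrichment over wild-type enrichment, computed from inverse-variance-weighted replicate averages.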

Row | Variant | polymerase ribozyme fitness (log ratio)
1 | C79G A98G G100C G124A | -2.18
2 | A23G G25C G50C C57A G58U C85U U144C | ≤ -4.2
3 | A19U C51G G59C C75G G88A A91U C96U G141C | ≤ -4.2
4 | U53A C93U U130G | ≤ -4.2
5 | A21C G25A G92A G133U A150G | ≤ -4.2
6 | A41C U53C C125G U144A | -2.53
7 | A17G A23U A26U C116G A138C A142C | ≤ -4.2
8 | G50A A91U G100U C125A | ≤ -4.2
9 | U6G A41C G42A U56C C85A C99A | ≤ -4.2
10 | A17G C27A | ≤ -4.2
11 | A16C C32U A122G | -3.01
12 | G94A C105A | -1.65
13 | A21C G42A C54A C96G U102G | ≤ -4.2
14 | G11C U61A G67A G94C U145G A147U | ≤ -4.2
15 | U82G G94U | -0.833
16 | A22G A113C | -2.12
17 | A3C U4G A49U U61C G70A G92U | ≤ -4.2
18 | C76A C95U A142G | -1.94
19 | A40C A52C G83A | -2.55
20 | C27G A147C | -4.05
21 | A12U A49C G100U U146G | ≤ -4.2

Row | Variant | polymerase ribozyme fitness (log ratio)
22 | C10A C35U A97U | ≤ -4.2
23 | C79A C103G C131A | ≤ -4.2
24 | A26C A29U C36A G42A U61A G70A A73C | ≤ -4.2
25 | A26G A49G C57U G59A C72A | ≤ -4.2
26 | C14A A17G A22U A24C A41C G70A U78A U90C C129U | ≤ -4.2
27 | U15A A142C | -0.894
28 | C14A G59C U78G C96U | ≤ -4.2
29 | U56A C69A G84A | -1.63
30 | U31G C54U U101C | -0.138
31 | C63U A122C | -0.464
32 | A19U A22C U55G A64C A73G A91C U144A | ≤ -4.2
33 | A23U A30G U45A A97G G100U | -4.19
34 | A30U C32G U55G G74A A89G C93A G133U A142C | ≤ -4.2
35 | A39C C76U G83U U104C | ≤ -4.2
36 | C54U G59C A60G A122U | 0.186
37 | A22G U33G | -3.24
38 | A17U U104A A106U G141C | ≤ -4.2
39 | G83C U144C | -1.58
40 | C51U G92U | -1.86
41 | G58C G68A G94U C96G | ≤ -4.2
42 | C14G C57A C85U C99A C123U | -3.49

Row | Variant | polymerase ribozyme fitness (log ratio)
43 | A19U C123U | -0.609
44 | C32G G59C C87G | ≤ -4.2
45 | U15G C99U A142U | -1.77
46 | U4C C57U A66C C87U | ≤ -4.2
47 | U13A C57U A73C C96G | ≤ -4.2
48 | A60U C79U A98G C103A | ≤ -4.2
49 | A47U A73U A147C | -2.13
50 | C5G A28G G48C G83C U104G G133U | ≤ -4.2
51 | C32U U61A G74U C99G | ≤ -4.2
52 | G68A U77A G81A U111A G126U | ≤ -4.2
53 | C27G C76A C93G | ≤ -4.2
54 | U33A A47C C99A | ≤ -4.2
55 | C57A C105U | 1.29
56 | C35U C51U G67A G92A C131G G133A U145G | ≤ -4.2
57 | C5A A49U C57A | -0.832
58 | G140U U146G | -3.88
59 | U4G A22U A37C C95A C96A U127G | ≤ -4.2
60 | A91C G152U | ≤ -4.2
61 | A29U A39U U55A C79A C93G | ≤ -4.2
62 | C27A A37U A91C | -4.17
63 | G50A A52C | -3.13

Row | Variant | polymerase ribozyme fitness (log ratio)
64 | C14U G94C A107G G117A A142U | ≤ -4.2
65 | A29G C51U G62A G84A U139G | ≤ -4.2
66 | G50U U144G U145A | 0.245
67 | C14U A41C C75G G84U C118A | ≤ -4.2
68 | G80C G86U G94C A137C | ≤ -4.2
69 | C93U A106C | -1.75
70 | A20C C76A A119U | -1
71 | A47C A52G U77G G94U C99U | ≤ -4.2
72 | U9A U13G G42U U61A A91U A106G A142C | ≤ -4.2
73 | A3U C35A C43A A52G G88A C108G | ≤ -4.2
74 | A22C C27U U44A A47C U82C C95U A142C | ≤ -4.2
75 | A41U U53A G88A U101G C108U G128C A142C | ≤ -4.2
76 | C96U A115G G136U A142G | -3.69
77 | G83C G84U C87U U102G A107U | ≤ -4.2
78 | A20G C57A C69A C76U C96U | -1.94
79 | U53A C93A | -3.27
80 | A16C A17G C57U G86A G133U | ≤ -4.2
81 | U6C A60G G117U | -1.75
82 | C96G G112C | -3.95
83 | G86U C87A C95A U104A | ≤ -4.2
84 | A39C G141U | -2.91

Source: the RNAGym collection of RNA variant scans (doi:10.1073/pnas.2313332121)
